Reference: patent US10251952B2, “Humanized anti-tau(pS422) antibody brain shuttles and use thereof” (Hoffmann-La Roche Inc., priority 2014, dated 2019)
Square brackets hold non-standard residues; d marks the D form. NMeR = CN[C@@H](CCCNC(=N)N)C(=O)O; Pqa = not defined here

Columns and labels:
Assay in all cases: effect on the Y2Receptor family
NPY5R = molecular target: T1, NPY5R (Homo sapiens, UniProt Q15761)
T1 sequence (Q15761 1-445): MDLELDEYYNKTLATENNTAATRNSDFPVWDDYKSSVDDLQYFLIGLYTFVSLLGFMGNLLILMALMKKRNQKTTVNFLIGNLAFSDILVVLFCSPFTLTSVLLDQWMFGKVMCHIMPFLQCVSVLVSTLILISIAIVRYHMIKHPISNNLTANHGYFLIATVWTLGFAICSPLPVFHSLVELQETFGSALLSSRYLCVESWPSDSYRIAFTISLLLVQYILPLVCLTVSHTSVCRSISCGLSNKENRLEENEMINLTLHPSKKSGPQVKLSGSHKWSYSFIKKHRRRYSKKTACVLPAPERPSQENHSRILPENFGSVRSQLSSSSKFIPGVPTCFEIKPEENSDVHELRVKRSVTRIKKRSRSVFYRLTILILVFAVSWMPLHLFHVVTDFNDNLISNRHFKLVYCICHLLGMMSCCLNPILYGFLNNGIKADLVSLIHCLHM

NPY2R = molecular target: T2, NPY2R (Homo sapiens, UniProt P49146)
T2 sequence (P49146 1-381): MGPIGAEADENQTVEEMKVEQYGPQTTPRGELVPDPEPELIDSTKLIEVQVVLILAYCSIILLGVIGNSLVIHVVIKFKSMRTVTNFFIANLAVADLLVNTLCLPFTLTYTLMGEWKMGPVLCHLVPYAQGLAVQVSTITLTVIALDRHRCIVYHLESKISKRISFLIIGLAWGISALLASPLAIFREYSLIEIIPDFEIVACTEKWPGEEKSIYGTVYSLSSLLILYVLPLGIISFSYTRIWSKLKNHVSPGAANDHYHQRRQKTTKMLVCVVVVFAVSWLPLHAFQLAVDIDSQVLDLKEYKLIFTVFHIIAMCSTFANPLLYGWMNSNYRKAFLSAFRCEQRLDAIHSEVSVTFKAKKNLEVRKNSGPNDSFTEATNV

NPY1R = molecular target: T3, NPY1R (Homo sapiens, UniProt P25929)
T3 sequence (P25929 1-384): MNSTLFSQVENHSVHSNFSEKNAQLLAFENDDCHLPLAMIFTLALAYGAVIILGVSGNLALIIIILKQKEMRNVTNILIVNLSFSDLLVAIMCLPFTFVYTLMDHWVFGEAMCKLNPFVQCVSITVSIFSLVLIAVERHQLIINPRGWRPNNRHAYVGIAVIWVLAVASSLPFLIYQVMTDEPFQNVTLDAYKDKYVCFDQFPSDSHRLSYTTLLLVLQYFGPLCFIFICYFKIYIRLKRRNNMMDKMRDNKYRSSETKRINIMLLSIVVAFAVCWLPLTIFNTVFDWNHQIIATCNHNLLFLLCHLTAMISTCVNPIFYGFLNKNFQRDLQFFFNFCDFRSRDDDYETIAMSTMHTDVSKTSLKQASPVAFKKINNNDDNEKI

NPY4R = NPY4R (Homo sapiens, UniProt P50391)
Sequence of NPY4R (P50391 whole entry, species assumed): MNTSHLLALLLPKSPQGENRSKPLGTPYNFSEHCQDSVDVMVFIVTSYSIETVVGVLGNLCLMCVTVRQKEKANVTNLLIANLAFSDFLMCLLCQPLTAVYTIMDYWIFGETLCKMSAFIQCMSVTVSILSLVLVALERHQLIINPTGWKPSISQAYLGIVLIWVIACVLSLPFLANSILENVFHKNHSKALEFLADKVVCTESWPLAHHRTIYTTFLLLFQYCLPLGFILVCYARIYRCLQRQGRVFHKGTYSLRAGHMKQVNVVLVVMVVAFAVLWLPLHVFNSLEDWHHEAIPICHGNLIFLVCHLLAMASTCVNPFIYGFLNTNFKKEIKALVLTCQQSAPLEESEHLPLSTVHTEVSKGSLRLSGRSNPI

Ac-Ile-Lys-Pqa-Arg-His-Tyr-Leu-Asn-Trp-Val-Thr-Arg-Gln-(NMe)-Arg-Try-NH2 * 4 HOAc (Ac-IK[Pqa]RHYLNWVTRQ[NMeR]Y-NH2; reading uncertain; also: salt: 4 HOAc, printed as Ac-Ile-Lys-Pqa-Arg-His-Tyr-Leu-Asn-Trp-Val-Thr-Arg-Gln-(NMe)-Arg-Try-NH2 * 4 HOAc) [reference compound]
NPY5R (NPY5R): inactive | NPY2R (NPY2R): 1.0 nM | NPY1R (NPY1R): inactive | NPY4R (NPY4R): inactive
